Among the data in paper PMC9057587 (The Journal of Clinical Investigation, 2022) are Kd, koff and kon values, retold here.

This experiment has as its target T1, human Tim-3 (T cell immunoglobulin mucin domain-containing protein 3) (Homo sapiens, UniProt Q8TDQ0).
T1 construct: human Tim-3 (HAVCR2), injected as the SPR analyte; I surmise the monomeric IgV domain; also called hTim3; hTim-3
Kind of experiment: SPR; Biacore T200, 37°C; antibody captured on a CM4 chip with preimmobilized anti-human IgG Fc pAb; human Tim-3 injected as analyte, single-cycle kinetics, 5-membered 5-fold dilution series, 1 uM top; 10 mM HEPES, 150 mM NaCl, 0.05% Tween 20, pH 7.4, 1 g/L BSA; 1:1 Langmuir model with mass transport. Particulars: both partners purified.

T1 sequence (Q8TDQ0 22-301): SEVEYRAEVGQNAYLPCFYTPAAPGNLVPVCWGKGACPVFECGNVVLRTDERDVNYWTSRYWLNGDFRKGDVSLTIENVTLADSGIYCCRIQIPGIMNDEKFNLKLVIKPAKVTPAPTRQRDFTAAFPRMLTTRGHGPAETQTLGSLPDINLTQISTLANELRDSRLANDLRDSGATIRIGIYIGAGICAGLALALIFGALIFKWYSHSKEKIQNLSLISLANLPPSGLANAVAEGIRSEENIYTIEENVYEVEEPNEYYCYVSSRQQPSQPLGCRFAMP

B1: aTim-3.18 monoclonal antibody (antibody, V domains shown)
VH: QLQLQESGPGLVKPSETLSLTCTVSGGSISSRSYYWGWIRQPPGKGLEWIGSIYYSGFTYYQPSLKSRVTISVDTSKNQFSLKLSSVTAADTAVYYCATGGPYGDYAHWFEPWGQGTLVTVSS
VL: not shown
notes: Whole mAb from Bristol Myers Squibb, captured in SPR through an anti-human IgG Fc antibody; The isotype-matched control was an IgG4, so I surmise the mAb is a human IgG4; source: Expi293, transient transfection, purified (Protein A MabSelect SuRe)
As for B1, the Kd was 1.8 nM, the koff came out at 0.0046 s⁻¹ and the kon was 2.6e+06 M⁻¹ s⁻¹.
